T1: PhoB (Desulfovibrio vulgaris Hildenborough) (UniProt Q72D47)
T1 sequence: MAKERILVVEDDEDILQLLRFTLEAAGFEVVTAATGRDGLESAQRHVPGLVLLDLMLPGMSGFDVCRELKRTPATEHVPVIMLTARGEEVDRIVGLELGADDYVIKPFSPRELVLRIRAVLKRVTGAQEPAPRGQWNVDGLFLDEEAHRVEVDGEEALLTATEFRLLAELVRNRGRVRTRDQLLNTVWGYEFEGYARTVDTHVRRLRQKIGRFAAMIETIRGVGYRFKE

T2: LurR (Desulfovibrio vulgaris Hildenborough) (UniProt Q726T3)
T2 sequence: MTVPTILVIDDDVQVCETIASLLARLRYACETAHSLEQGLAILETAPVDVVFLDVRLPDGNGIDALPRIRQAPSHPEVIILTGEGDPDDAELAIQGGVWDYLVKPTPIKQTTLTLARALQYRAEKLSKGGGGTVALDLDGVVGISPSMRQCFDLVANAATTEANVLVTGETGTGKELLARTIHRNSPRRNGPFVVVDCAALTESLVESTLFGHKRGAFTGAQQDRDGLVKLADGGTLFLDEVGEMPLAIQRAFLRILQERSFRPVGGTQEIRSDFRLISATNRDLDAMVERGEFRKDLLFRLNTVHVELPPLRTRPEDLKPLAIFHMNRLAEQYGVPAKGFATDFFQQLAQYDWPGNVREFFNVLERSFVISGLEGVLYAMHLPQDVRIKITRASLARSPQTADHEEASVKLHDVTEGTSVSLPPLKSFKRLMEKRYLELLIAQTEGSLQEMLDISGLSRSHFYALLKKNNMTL

T3: LurR (Desulfovibrio vulgaris Hildenborough, UniProt Q726T3 1-474)
T3 sequence: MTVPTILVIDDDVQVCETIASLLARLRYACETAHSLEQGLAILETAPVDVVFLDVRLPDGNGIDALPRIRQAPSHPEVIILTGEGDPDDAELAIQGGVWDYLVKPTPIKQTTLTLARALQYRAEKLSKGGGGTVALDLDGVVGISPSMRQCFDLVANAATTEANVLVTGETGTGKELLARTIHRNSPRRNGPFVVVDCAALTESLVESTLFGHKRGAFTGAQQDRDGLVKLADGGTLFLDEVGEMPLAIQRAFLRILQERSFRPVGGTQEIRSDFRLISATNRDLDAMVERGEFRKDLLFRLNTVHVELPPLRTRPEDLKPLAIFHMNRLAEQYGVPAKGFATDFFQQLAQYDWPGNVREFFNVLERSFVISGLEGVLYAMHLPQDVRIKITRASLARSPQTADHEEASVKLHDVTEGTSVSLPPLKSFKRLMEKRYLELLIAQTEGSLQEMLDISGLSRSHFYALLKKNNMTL

B1: por LurR motif mut oligo (dsDNA)
DNA 1: GCCACACGAACTGCGCTTTTCAATCAACGCTACCAC
DNA 2: GTGGTAGCGTTGATTGAAAAGCGCAGTTCGTGTGGC

Experiments:
[1] = molecular target: T1, PhoB (Desulfovibrio vulgaris Hildenborough); assay: EMSA; details: 10 mM Tris-HCl pH 7.5, 50 mM KCl, 5 mM MgCl2, 1 ug/ml poly dI.dC, 100 fmol biotinylated DNA in 20 ul, room temperature, 20 min
[2] = molecular target: T2, LurR (Desulfovibrio vulgaris Hildenborough); assay: EMSA; details: 10 mM Tris-HCl pH 7.5, 50 mM KCl, 5 mM MgCl2, 1 ug/ml poly dI.dC, 100 fmol biotinylated DNA in 20 ul, room temperature, 20 min
LurR = molecular target: T3, LurR; assay: EMSA; 0.5-1 pmol LurR; 10 mM Tris-HCl pH 7.5, 50 mM KCl, 5 mM MgCl2, 1 ug/ml poly dI.dC, 100 fmol biotinylated DNA in 20 ul, room temperature, 20 min; details: protein: recombinant; chain copies: 2; label: biotin on one strand

Molecule | binding [1] | binding [2] | binding result (LurR)
CGAGAAACGACAGCCGGAGGAAAAACCAAGGTTACAGCATAGTTACAGATAACACACCATTGGCACATTTCTTGTTAAACTTGCGGAGTTCGCGCTCTCCGCGCAACGGTCTCGGGCTCGCCCGCAAGCACCGTGAACTCCAGCCTCCGGCCCCCGGCGGCATGCCATTTTCACCACGCGCCCACCACAGGGCAGAAAAAGGAGATCGTAAATGGCCAAG (double strand) [por promoter substrate IV (220 bp)] | binds | no binding | –
GTCAGTAGGGTAACGCCACACGAAGTCCGCTTTTCAAGACACGCTACCACGCAACCCCATCCACGAGAAACGACAGCCGGAGGAAAAACCAAGGTTACAGCATAGTTACAGATAACACACCATTGGCACATTTCTTGTTAAACTTGCGGAGTTCGCGCTCTCCGCGCAACGGTCTCGGGCTCGCCCGCAAGCACCGTGAACTCCAGCCTCCGGCCCCCGGCGGCATGCCATTTTCACCACGCGCCCACCACAGGGCAGAAAAAGGAGATCGTAAATGGCCAAG (double strand) [por promoter substrate III (283 bp)] | binds | binds | –
B1 | – | – | no binding
